Measurements from patent US20090117096A1 (Scripps Research, published 2009).

Experiments:
integrin αvβ5 = target: T1, integrin αvβ5 (human, UniProt P06756 31-1048; P18084 24-799); assay: flow cytometry on human tumor cell panel (summary statement)
T1 construct: whole, on cells

integrin αvβ1 = target: T2, integrin αvβ1 (human, UniProt P06756 31-1048; P05556 21-798); assay: as above
T2 construct: whole, on cells

integrin α5β1 = target: T3, integrin α5β1 (human, UniProt P08648 42-1049; P05556 21-798); assay: flow cytometry on human tumor cell panel (FIG. 1)
T3 construct: whole, on cells
Description: Flow cytometry. scFv binding to human tumor cells was analyzed by flow cytometry, initially with cloned scFv phage and then with purified scFv protein. […] Binding/washing buffer was TBS with or without divalent cations (1 mM Ca²⁺, 1 mM Mg²⁺, 0.2 mM Mn²⁺). […] All samples were counter stained with propidium iodide (PI) and analyzed on a Becton-Dickinson FACScan, with live gate set to exclude PI positive cells.

Measured: binding result

T2 sequence (P06756 31-1048, chain 1 of 2): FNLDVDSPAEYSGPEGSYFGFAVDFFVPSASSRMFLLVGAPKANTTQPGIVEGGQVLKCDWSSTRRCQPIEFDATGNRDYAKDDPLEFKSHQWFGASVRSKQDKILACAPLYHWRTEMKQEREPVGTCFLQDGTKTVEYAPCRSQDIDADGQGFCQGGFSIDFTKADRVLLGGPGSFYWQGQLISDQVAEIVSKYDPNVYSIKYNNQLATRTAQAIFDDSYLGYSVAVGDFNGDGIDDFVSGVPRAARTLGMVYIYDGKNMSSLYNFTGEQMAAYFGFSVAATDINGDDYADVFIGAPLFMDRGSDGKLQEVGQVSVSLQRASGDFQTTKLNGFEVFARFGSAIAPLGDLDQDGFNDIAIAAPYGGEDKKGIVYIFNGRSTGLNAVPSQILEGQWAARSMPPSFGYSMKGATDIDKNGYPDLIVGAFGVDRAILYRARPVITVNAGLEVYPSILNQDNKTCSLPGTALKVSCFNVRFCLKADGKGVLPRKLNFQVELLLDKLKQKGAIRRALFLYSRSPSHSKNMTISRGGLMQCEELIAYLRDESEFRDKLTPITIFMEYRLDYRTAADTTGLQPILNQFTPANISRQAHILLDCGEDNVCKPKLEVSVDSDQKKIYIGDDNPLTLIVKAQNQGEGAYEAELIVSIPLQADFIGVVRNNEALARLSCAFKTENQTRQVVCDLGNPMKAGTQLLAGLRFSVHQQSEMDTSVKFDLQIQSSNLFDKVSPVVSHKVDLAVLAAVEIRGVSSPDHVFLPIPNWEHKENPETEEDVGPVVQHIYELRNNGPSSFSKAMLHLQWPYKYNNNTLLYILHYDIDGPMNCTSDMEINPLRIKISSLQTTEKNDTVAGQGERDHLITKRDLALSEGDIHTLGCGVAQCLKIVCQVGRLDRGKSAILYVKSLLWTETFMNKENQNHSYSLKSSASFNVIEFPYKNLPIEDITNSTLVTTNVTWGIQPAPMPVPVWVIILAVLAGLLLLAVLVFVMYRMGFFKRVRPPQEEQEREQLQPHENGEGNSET
T2 sequence (P05556 21-798, chain 2 of 2): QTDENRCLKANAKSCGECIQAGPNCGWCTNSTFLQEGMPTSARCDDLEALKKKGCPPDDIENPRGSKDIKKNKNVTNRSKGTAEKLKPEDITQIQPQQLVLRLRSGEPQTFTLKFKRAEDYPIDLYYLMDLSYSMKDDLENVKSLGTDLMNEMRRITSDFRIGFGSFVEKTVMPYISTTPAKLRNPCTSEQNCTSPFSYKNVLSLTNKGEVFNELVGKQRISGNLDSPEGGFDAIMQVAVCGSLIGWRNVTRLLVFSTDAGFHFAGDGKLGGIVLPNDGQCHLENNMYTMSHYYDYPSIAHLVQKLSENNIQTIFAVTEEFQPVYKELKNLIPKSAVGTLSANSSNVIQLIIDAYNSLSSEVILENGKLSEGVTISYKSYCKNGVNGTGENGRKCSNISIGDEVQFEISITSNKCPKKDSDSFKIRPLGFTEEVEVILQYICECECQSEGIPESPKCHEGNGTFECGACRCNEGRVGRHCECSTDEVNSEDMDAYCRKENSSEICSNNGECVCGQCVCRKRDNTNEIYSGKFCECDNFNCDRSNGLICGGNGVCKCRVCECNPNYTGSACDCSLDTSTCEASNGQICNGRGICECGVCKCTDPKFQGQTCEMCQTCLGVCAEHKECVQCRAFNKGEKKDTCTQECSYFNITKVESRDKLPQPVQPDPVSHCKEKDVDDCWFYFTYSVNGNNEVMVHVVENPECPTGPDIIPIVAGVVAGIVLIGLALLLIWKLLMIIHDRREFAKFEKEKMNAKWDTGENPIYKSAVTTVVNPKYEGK
T1 sequence (P06756 31-1048, chain 1 of 2): as the sequence (P06756 31-1048, chain 1 of 2) above
T1 sequence (P18084 24-799, chain 2 of 2): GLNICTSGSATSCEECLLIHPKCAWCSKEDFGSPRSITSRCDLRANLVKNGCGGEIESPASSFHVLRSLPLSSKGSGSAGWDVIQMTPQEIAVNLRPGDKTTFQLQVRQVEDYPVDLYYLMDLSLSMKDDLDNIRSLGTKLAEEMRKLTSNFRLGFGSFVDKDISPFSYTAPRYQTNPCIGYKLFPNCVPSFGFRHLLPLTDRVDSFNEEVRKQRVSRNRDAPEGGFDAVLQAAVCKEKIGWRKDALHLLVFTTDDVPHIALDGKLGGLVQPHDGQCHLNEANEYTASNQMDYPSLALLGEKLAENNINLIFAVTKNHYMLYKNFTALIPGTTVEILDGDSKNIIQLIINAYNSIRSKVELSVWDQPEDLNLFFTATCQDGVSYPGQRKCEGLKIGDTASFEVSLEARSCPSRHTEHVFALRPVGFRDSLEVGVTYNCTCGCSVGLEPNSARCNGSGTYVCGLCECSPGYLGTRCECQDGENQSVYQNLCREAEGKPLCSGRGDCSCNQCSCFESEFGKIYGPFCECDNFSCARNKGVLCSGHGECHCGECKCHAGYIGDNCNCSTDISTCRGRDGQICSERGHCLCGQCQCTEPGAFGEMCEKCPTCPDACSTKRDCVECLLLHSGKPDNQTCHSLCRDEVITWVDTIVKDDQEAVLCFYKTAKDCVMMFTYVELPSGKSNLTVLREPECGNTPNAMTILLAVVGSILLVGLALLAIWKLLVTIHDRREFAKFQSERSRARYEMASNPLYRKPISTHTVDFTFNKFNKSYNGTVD
T3 sequence (P08648 42-1049, chain 1 of 2): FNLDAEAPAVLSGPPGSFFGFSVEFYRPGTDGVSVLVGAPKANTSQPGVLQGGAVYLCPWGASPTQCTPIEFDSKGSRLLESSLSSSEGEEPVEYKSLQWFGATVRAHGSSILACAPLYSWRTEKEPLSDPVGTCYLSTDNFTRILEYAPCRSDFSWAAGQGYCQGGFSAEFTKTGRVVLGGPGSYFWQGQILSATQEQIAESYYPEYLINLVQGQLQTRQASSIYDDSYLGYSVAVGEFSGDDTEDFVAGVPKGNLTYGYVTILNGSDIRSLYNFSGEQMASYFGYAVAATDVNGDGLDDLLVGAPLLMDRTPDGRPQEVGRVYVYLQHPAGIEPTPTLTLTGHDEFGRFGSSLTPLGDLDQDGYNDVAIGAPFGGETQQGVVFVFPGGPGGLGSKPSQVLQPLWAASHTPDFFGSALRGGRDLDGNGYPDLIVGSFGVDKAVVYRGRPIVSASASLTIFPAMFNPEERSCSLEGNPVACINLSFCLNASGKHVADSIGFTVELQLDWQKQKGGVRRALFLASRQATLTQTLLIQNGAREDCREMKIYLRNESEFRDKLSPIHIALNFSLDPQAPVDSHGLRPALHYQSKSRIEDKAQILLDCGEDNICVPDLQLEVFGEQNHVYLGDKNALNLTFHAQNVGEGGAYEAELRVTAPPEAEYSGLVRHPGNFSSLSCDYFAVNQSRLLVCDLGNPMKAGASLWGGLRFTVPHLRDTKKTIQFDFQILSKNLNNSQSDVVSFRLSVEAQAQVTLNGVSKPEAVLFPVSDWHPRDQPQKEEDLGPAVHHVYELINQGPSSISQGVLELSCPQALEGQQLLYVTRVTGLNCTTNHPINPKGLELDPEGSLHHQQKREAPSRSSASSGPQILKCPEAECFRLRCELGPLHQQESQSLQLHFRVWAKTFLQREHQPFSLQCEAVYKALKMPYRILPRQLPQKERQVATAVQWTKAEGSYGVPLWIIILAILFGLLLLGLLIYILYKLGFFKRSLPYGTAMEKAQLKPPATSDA
T3 sequence (P05556 21-798, chain 2 of 2): as the sequence (P05556 21-798, chain 2 of 2) above

B1: scFv antibody Bc-12 (scFv)
scFv: MAQVQLVQSGAEVKKPGASVKVSCKASGYTFSNYGITWVRQAPGQGLEWMGWINNGNTHYAQKFQGRVTMTTDTSTSTAYMELRSLRSDDTAVYYCARDPRGDDEPYWGQGTLVTVSSGGGGSGGGGSGGGGSEIVLTQSPLSLPVTLGQPASISCRSSQNLVYSDGNTYLSWFQQRPGQSPRRLIYKVSNRDSGVPDRFSGSGSGTDFTLKISRVEAEDIGVYYCMQGTHWPPRTFGQGTKVEIKRGLGGLVDYKDDDDK
notes: also called scFv Bc-12
no binding: all assays above
